Test results: US20240150474A1 (Regeneron, published 2024)
Substitutions are numbered along the chain they refer to.

T1: dimeric mouse ACVRL1 (mouse, UniProt Q61288 23-119, limits assumed)
T1 construct: Construct and dimerising part not described; also called Mouse Receptor ACVRL1
T1 sequence (looked up): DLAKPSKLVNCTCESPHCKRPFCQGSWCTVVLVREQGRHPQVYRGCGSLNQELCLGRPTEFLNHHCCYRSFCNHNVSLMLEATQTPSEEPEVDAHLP

T2: dimeric mouse BMPR1B (mouse, UniProt P36898 14-126, limits assumed)
T2 construct: Construct and dimerising part not described; also called Mouse Receptor BMPR1B
T2 sequence (looked up): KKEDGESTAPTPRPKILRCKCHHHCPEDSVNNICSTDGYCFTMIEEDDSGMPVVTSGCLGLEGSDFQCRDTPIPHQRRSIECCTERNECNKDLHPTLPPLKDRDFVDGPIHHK

T3: dimeric human BMPR1B (human, UniProt O00238 14-126, limits assumed)
T3 construct: Construct and dimerising part not described; also called Human Receptor BMPR1B
T3 sequence (looked up): T2 sequence (looked up) with I16V, M51L, D102N, K113R

T4: mouse ACVR1 extracellular domain expressed with a C-terminal myc-myc-hexahistidine tag (mouse)
T4 construct: also called mACVR1-mmh; mACVR1.mmh
T4 chain: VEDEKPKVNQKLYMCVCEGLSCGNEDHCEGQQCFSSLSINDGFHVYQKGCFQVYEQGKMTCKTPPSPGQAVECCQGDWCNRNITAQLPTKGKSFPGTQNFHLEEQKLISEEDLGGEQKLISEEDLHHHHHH

T5: human ACVR1 extracellular domain expressed with a C-terminal myc-myc-hexahistidine tag (human)
T5 construct: also called hACVR1-mmh; hACVR1.mmh
T5 chain: T4 chain with V1M, Q10P

B1: REGN 5166 (antibody, human IgG4 S228P, kappa, V domains shown)
VH: QVQLVESGGGVVQPGRSLRLSCAASGFTFSAYWMHWVRQAPGKGLEWVAVISYDGSNKYYADSVKGRFTISRDHSKNTLYLQMNSLRAEDTAVYYCAKGDAYDSWRILLGGDYYGMDVWGQGTTVTVSS
VL: EIVLTQSPGTLSLSPGERATLSCRASQSVSSSYLAWYQQKPGQAPRPLIYGASSRATGIPDRFSGSGSGTDFTLTISRLEPEDFAVYYCQQGGDAPPYTFGGGTKVEIKR
notes: also called REGN 5166-L1
B2: REGN 5167 (antibody, human IgG4 S228P, kappa, V domains shown)
VH: QLQLQESGPGLVKPSETLSLTCTVSGGSITSSSYYWAWIRQPPGKGLEWIGKIYYSGSTHYNPSLKSRVTISVDTSKNQFSLKLSSVTAADTAVYYCARVGGHGYGDSAGLAFDIWGQGTMVTVSS
VL: EIVLTQSPGTLSLSPGERATLSCRASQSVSSAFLAWYQQKPGQAPRLLIYGASYRHTGIPDRFSGSGSGTDFTLTISRLEPEDFAVYYCQHYGVGPRTFGGGTKVEIKR
notes: also called REGN 5167-L1
B3: REGN 5168 (antibody, human IgG4 S228P, kappa, V domains shown)
VH: QVQLVQSGAEVKEPGASVKVSCKASGYTFAEYYMHWVRQAPGQGLEWMGAINPSGSHTSYAQKFQGRVTMTRDTSTSTVYMELSSLRSEDTAVYYCARSISGKRGGDYYGMDVWGQGTTVTVSS
VL: DIQMTQSPSTLSASVGDRVTITCRASQSISSWLAWYQQKPGKAPKLLIYKASSLESGVPSRFSGSGSGTEFTLTISSLQPDDFATYYCQQYSIFPFTFGGGTKVEIKR
notes: also called REGN 5168-L1

Target: T1, dimeric mouse ACVRL1
Test: SPR Biacore T200, mAb captured by anti-human Fab, dimeric receptor injected, 25C
Procedure: (§1) ACVR1 mAbs were tested for cross-reactivity to a panel of bone morphogenic protein type 1 receptors including human and mouse ACVR1, BMPR1A, and BMPR1B, as well as ACVRL1 on a Biacore T200 as follows. In order to measure the specificity of ACVR1 mAbs, ACVR1 mAbs were captured with anti-human Fab immobilized on a CM5 chip. 100 nM or 10 nM of dimeric human or mouse ACVR1, ACVRL1, BMPR1A or BMPR1B were injected at 30 μL/min for 2 min (duplicate injections) and the experiment was performed at 25° C. Binding of different receptors to the captured mAb was determined using Scrubber 2.0c software.

binding result	Binder
no binding (tested: 100 nM)	B1
no binding (tested: 100 nM)	B2
no binding (tested: 100 nM)	B3

Target: T2, dimeric mouse BMPR1B
Test: as above
Procedure: as §1

binding result	Binder
no binding (tested: 100 nM)	B1
no binding (tested: 100 nM)	B2
no binding (tested: 100 nM)	B3

Target: T6, dimeric human ACVRL1 (human, UniProt P37023 22-118, limits assumed)
T6 construct: Construct and dimerising part not described; also called Human Receptor ACVRL1
Test: as above
Procedure: as §1

T6 sequence (P37023 22-118 limits assumed): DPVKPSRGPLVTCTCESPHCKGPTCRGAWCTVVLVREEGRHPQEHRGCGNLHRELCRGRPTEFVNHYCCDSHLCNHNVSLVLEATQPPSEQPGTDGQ

binding result	Binder
no binding (tested: 100 nM)	B1
no binding (tested: 100 nM)	B2
no binding (tested: 100 nM)	B3

Target: T3, dimeric human BMPR1B
Test: as above
Procedure: as §1

binding result	Binder
no binding (tested: 100 nM)	B1
no binding (tested: 100 nM)	B2
no binding (tested: 100 nM)	B3

Target: T7, dimeric human BMPR1A (human, UniProt P36894 24-152, limits assumed)
T7 construct: Construct and dimerising part not described; also called Human Receptor BMPR1A
Test: as above
Procedure: as §1

T7 sequence (P36894 24-152 limits assumed): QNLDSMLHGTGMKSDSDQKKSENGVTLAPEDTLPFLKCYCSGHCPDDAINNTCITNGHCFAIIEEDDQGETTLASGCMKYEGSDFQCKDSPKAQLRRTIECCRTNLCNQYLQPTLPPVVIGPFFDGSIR

binding result	Binder
no binding (tested: 100 nM)	B1
no binding (tested: 100 nM)	B2
no binding (tested: 100 nM)	B3

Target: T8, dimeric mouse BMPR1A (mouse, UniProt P36895 24-152, limits assumed)
T8 construct: Construct and dimerising part not described; also called Mouse Receptor BMPR1A
Test: as above
Procedure: as §1

T8 sequence (P36895 24-152 limits assumed): as the sequence (P36894 24-152 limits assumed) above, with S16L, S21P, A74T counted along it

binding result	Binder
no binding (tested: 100 nM)	B1
no binding (tested: 100 nM)	B2
no binding (tested: 100 nM)	B3

Target: T4, mouse ACVR1 extracellular domain …
Test: SPR Biacore T200, mAb captured by anti-human Fc, mACVR1-mmh injected, 37C
Procedure: (§2) Equilibrium dissociation constants (KD) for ACVR1 binding to purified anti-ACVR1 monoclonal antibodies were determined using a real-time surface plasmon resonance (SPR) based Biacore T200 biosensor. All binding studies were performed in 10 mM HEPES, 150 mM NaCl, 3 mM EDTA, and 0.05% v/v surfactant Tween-20, pH 7.4 (HBS-EP) running buffer at […]. The Biacore CM5 sensor surface was first derivatized by amine coupling with a monoclonal mouse anti-human Fc antibody (REGN2567) to capture anti-ACVR1 monoclonal antibodies. Different concentrations of ACVR1 reagents, human ACVR1 extracellular domain expressed with a C-terminal myc-myc-hexahistidine tag (hACVR1-mmh; REGN3111, SEQ ID NO: 63), mouse ACVR1 extracellular domain expressed with a C-terminal myc-myc-hexahistidine tag (mACVR1-mmh; REGN3407, SEQ ID NO: 65), human ACVR1 extracellular domain expressed with a C-terminal mouse IgG2a Fc tag (hACVR1-mFc; REGN3112, SEQ ID NO: 64); and mouse ACVR1 extracellular domain expressed with a C-terminal mouse IgG2a Fc tag (mACVR1-mFc, R&D system), at concentrations ranging from 0.41 nM to 100 nM in a series of 3-fold dilutions prepared in HBS-EP running buffer were injected at a flow rate of 50 μL/min for 1.5 minutes. The dissociation of different ACVR1 reagents bound to anti-ACVR1 monoclonal antibodies was monitored for 20 minutes in HBS-EP running buffer. At the end of each cycle, the anti-ACVR1 monoclonal antibodies capture surface was regenerated using a 12 sec injection of 20 mM H3PO4. The association rate (ka) and dissociation rate (kd) were determined by fitting the real-time binding sensorgrams to a 1:1 binding model with mass transport limitation using Scrubber 2.0c curve-fitting software. Binding dissociation equilibrium constant (KD) and dissociative half-life (t½) were calculated from the kinetic rates as: […]
(§3) Binding kinetics parameters for different ACVR1 reagents to anti-ACVR1 monoclonal antibodies of the invention at 37° C. are shown in Table 5 through Table 8.

100 nM Ag Bound (RU)	Kd	koff	kon	t½	Binder
43 RU	0.268 nM	0.000181 s⁻¹	674000 M⁻¹ s⁻¹	1.07 h	B1
43 RU	0.226 nM	0.000161 s⁻¹	713000 M⁻¹ s⁻¹	1.2 h	B2
42 RU	1.24 nM	0.00167 s⁻¹	1.34e+06 M⁻¹ s⁻¹	0.117 h	B3

Target: T5, human ACVR1 extracellular domain …
Test: SPR Biacore T200, mAb captured by anti-human Fc, hACVR1-mmh injected, 37C
Procedure: as §2, §3

100 nM Ag Bound (RU)	Kd	koff	kon	t½	Binder
43 RU	0.26 nM	0.000176 s⁻¹	677000 M⁻¹ s⁻¹	1.08 h	B1
43 RU	0.227 nM	0.000163 s⁻¹	718000 M⁻¹ s⁻¹	1.18 h	B2
42 RU	1.21 nM	0.00159 s⁻¹	1.31e+06 M⁻¹ s⁻¹	0.117 h	B3
